According to the supplement of paper PMC10567573:

B1: DFFB (parent)
chain: TLVEAIKEQDGREVDWEYFYGLLF
B2: C2CD2L (parent)
chain: LTLKVLRSSSCGDTELLGQATLPV

Variants of: B1
Assay: protein stability index of a GFP-peptide fusion (GPS, HEK-293T) (PSI 1-6); higher = more stable
Settings: c terminus: a fixed tail appended
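Also: lentivirally expressed fusions sorted by FACS into six bins by GFP to DsRed ratio, PSI derived from sequencing read proportions per bin multiplied by bin number.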

Row | Variant | protein stability index
1 | Y18H | 3.81
2 | Y18I | 2.06
3 | Y18L | 1.25
4 | Y18M | 1.94
5 | Y18N | 2.44
6 | Y18Q | 2.18
7 | Y18R | 2.2
8 | Y18S | 2.24
9 | Y18T | 1.9
10 | Y18V | 2.34
11 | Y18W | 1.76
12 | F19A | 1.9
13 | F19C | 2.04
14 | F19D | 2.76
15 | F19H | 2.5
16 | F19I | 1.55
17 | F19K | 3.22
18 | F19L | 2.1
19 | F19M | 2.17
20 | F19N | 2.24
21 | F19P | 3.01
22 | F19Q | 3.44
23 | F19R | 2.31

Row | Variant | protein stability index
24 | F19S | 2.68
25 | F19T | 2.69
26 | F19V | 1.42
27 | F19W | 2.39
28 | F19Y | 2.19
29 | Y20A | 2.03
30 | Y20C | 1.92
31 | Y20D | 2.36
32 | Y20E | 1.67
33 | Y20F | 1.93
34 | Y20G | 1.79
35 | Y20H | 2.03
36 | Y20I | 1.78
37 | Y20K | 1.6
38 | Y20L | 1.53
39 | Y20M | 2.64
40 | Y20N | 2.25
41 | Y20P | 2.67
42 | Y20Q | 2.07
43 | Y20R | 2.67
44 | Y20S | 1.33
45 | Y20T | 1.54
46 | Y20V | 2.42

Row | Variant | protein stability index
47 | Y20W | 1.72
48 | G21C | 1.72
49 | G21E | 1.93
50 | G21H | 2.37
51 | G21I | 1.34
52 | G21K | 2.31
53 | G21L | 1.35
54 | G21M | 2.26
55 | G21N | 1.87
56 | G21P | 1.46
57 | G21Q | 2.25
58 | G21R | 1.84
59 | G21S | 2
60 | G21T | 1.88
61 | G21V | 1.08
62 | G21W | 1.83
63 | G21Y | 1.53
64 | L22A | 2
65 | L22C | 2.04
66 | L22D | 2.62
67 | L22E | 2.51
68 | L22F | 1.52
69 | L22H | 2.43

Row | Variant | protein stability index
70 | L22I | 1.97
71 | L22M | 1.85
72 | L22P | 3.28
73 | L22Q | 2.94
74 | L22R | 1.8
75 | L22S | 2.49
76 | L22T | 2.58
77 | L22V | 1.96
78 | L22W | 1.1
79 | L22Y | 1.86
80 | L23A | 1.86
81 | L23C | 1.6
82 | L23D | 2
83 | L23E | 2.19
84 | L23F | 2.26
85 | L23H | 2.07
86 | L23I | 2.24
87 | L23K | 2.03
88 | L23M | 2.12
89 | L23P | 2.18
90 | L23Q | 2.37
91 | L23R | 2.5
92 | L23S | 2.1

Row | Variant | protein stability index
93 | L23V | 1.92
94 | L23W | 2.21
95 | L23Y | 2.86
96 | F24A | 1.69
97 | F24C | 2.23
98 | F24D | 2.21
99 | F24E | 2.22
100 | F24H | 2.2
101 | F24I | 1.93
102 | F24K | 1.79
103 | F24L | 1.7
104 | F24N | 1.95
105 | F24P | 2.53
106 | F24Q | 2.27
107 | F24R | 1.63
108 | F24S | 2.52
109 | F24T | 2.42
110 | F24W | 1.07
111 | F24Y | 2.31

Variants of: B2
Assay: as above
Settings: c terminus: a fixed tail appended

Row | Variant | protein stability index
112 | L1A | 4.09
113 | L1C | 2.58
114 | L1D | 3.35
115 | L1E | 2.76
116 | L1F | 1
117 | L1G | 2.56
118 | L1H | 2.24
119 | L1I | 2.76
120 | L1K | 1.99
121 | L1M | 2.63
122 | L1N | 2.97
123 | L1P | 2.9
124 | L1Q | 2.96
125 | L1R | 2.29
126 | L1S | 2.74
127 | L1T | 2.04
128 | L1W | 2.67
129 | L1Y | 1.77
130 | T2A | 1.66

Row | Variant | protein stability index
131 | T2C | 2.32
132 | T2D | 1.95
133 | T2E | 1.92
134 | T2G | 1.93
135 | T2H | 1.3
136 | T2I | 2.9
137 | T2K | 2.17
138 | T2P | 2.8
139 | T2Q | 2.93
140 | T2R | 1.64
141 | T2W | 2.99
142 | T2Y | 2.94
143 | L3A | 2.59
144 | L3C | 1.68
145 | L3D | 3.35
146 | L3E | 3.55
147 | L3F | 2.31
148 | L3G | 2.16
149 | L3H | 2.51

Row | Variant | protein stability index
150 | L3I | 4.28
151 | L3K | 3.07
152 | L3M | 1.46
153 | L3N | 3.56
154 | L3P | 3.51
155 | L3Q | 2.87
156 | L3R | 2.63
157 | L3S | 2.74
158 | L3T | 2.71
159 | L3W | 2.45
160 | L3Y | 1.59
161 | K4C | 2.5
162 | K4D | 1.94
163 | K4E | 2.12
164 | K4F | 2.97
165 | K4G | 2.46
166 | K4H | 1.65
167 | K4M | 1.06
